The values below come from patent US20240150489A1 (ICHNOS SCIENCES, published 2024).

The target of one test is T1, human CD47-ECD-Avi-His (human).
T1 construct: also called recombinant human CD47-avi-his protein; recombinant human CD47 protein
Briefly: SPR, CD47 amine-coupled, Fab analyte, 1:1 fit.

Test [1] has as its target T2, cynomolgus CD47-ECD-Avi-His (cynomolgus monkey).
T2 construct: also called recombinant cynomolgus monkey CD47-avi-his protein
T2 chain: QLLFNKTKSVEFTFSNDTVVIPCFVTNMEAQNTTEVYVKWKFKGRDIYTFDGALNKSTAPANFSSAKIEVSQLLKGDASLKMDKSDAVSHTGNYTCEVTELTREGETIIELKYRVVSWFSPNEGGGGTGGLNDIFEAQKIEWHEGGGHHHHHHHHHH
Briefly: SPR, CD47 amine-coupled, Fab analyte, 1:1 fit.
Experimental: (§1) Surface plasmon resonance (SPR) was used to measure the binding affinities of the Fab fragments for human and cynomolgus monkey CD47. Affinities were measured on a Biacore T200 instrument (Biacore, GE Healthcare) at 25° C. and analyzed with the Biacore T200 Evaluation Software (v3.1). […] Recombinant human CD47 protein and recombinant cynomolgus monkey CD47 protein were covalently immobilized to around 50 RU on flow-path 2 and flow-path 4 respectively of the Sensor Chip surface using a commercially available amine coupling kit (Biacore, GE Healthcare, catalog NO: BR100050). […] Dissociation was monitored for 5 min. After each cycle, the Series S CM5 Sensor Chip surface coated with recombinant CD47 proteins was regenerated with 30 μl of 10 mM Glycine pH 1.5 (Biacore, GE Healthcare, catalog NO: BR100354). Experimental data were processed using the 1:1 Langmuir kinetic fitting model. Measurements included zero-concentration samples for referencing. Chi², U- and residual values were used to evaluate the quality of a fit between the experimental data and individual binding models.

Test [2] concerns the target T3, recombinant cynomolgus monkey CD38-ECD-C-his (cynomolgus monkey, UniProt Q5VAN0 45-301).
T3 construct: Extracellular region fused to 6-His; also called cyno CD38-C-His; recombinant cynomolgus monkey CD38 protein
Briefly: SPR, Fab captured as ligand, cyno CD38 analyte. Background: SPR reads the build-up and loss of mass on a sensor chip optically.
Experimental: (§2) Affinities of the Fab to human and cynomolgus CD38 using the Fab as ligand were measured on a Biacore T200 instrument (Biacore, GE Healthcare) at 25° C. and analyzed with the BiacoreT200 Evaluation Software (v3.1). […] The affinities to human and cynomolgus monkey CD38 were assessed by immobilizing Fab fragments and using human or cynomolgus monkey CD38 protein as analyte. Around 50-200 RU of Fab was captured on flow-path 2 of a Series S CM5 Sensor Chip coupled with anti-human Fab antibodies. Human or cynomolgus monkey CD38 was injected in multi cycle kinetic at different concentrations ranging from 0.2 to 100 nM, in HBS-EP+ buffer (Biacore, GE Healthcare, catalog NO: BR100669) at a flow rate of 30 μl/min for 5 min on flow-path 1 and 2 (flow-path 1 being used as reference). Dissociation was monitored for 10 min. […] Experimental data were processed using the 1:1 Langmuir kinetic fitting model. Measurements included zero-concentration samples for referencing. Chi², U- and residual values were used to evaluate the quality of a fit between the experimental data and individual binding models.

Test [3] has as its target T4, recombinant biotinylated human CD38 Avitag, His Tag (Acrobiosystems, CD8-H82E7) (human, UniProt P28907 43-300, biotinylated (Avitag)).
T4 construct: Bought protein; also called biotinylated human CD38-avi-his protein; biotinylated recombinant human CD38 protein
The experiment in a line: SPR, biotinylated CD38 captured, Fab as analyte.

In test [4] the target is T3, recombinant cynomolgus monkey …. The experiment in a line: SPR, His-captured cyno CD38, Fab as analyte.
Test [5] has as its target T5, recombinant human CD38-ECD-C-his (human, UniProt P28907 43-300).
T5 construct: Extracellular region fused to 6-His, made in house; also called human CD38-C-His; recombinant human CD38 protein
Briefly: SPR, Fab captured as ligand, CD38 analyte.
Experimental: as §2

Experimental for human CD47-ECD-Avi-His: as §1

B1: anti-CD47-UCP01-G1 FAB (Fab, V domains shown)
VH: EVQLLESGGGLVQPGGSLRLSCAASGFTFSNYAMAWVRQAPGKGLEWVSVISVEGGLTVYADSVKGRFTISRDNSKNTLYLQMNSLRAEDTAVYYCARGSRDSRGKYGAFDVWGQGTLVTVSS
VL: not shown
notes: human IgG1 Fab
Usually Kd stands for the concentration at which binding is half-saturated. For the molecule B1, the Kd turned out to be 136 nM with human CD47-ECD-Avi-His and 214 nM in test [1].

B2: anti-CD38-B6-MP01-B4 FAB (Fab, V domains shown)
VH: QVQLVQSGAEVKKPGSSVKVSCKASGYEFNTYIINWVRQAPGQGLEWMGRVIPVIDDAYYAQKFQGRVTITADESTSTAYMELSSLRSEDTAVYYCARSRGYYGSFYFDIWGQGTLVTVSS
VL: not shown
notes: human IgG1 Fab
Consider B2, for which the Kd is 167 nM in test [2], 11.9 nM in test [3], 45.4 nM in test [4] and 51.6 nM in test [5].

B3: anti-CD38-B6-MP02-C1 FAB (Fab, V domains shown)
VH: QVQLVQSGAEVKKPGSSVKVSCKASGGHQLGKIINWVRQAPGQGLEWMGRVIPVIDDAYYAQKFQGRVTITADESTSTAYMELSSLRSEDTAVYYCARSRGYYGSFYFDIWGQGTLVTVSS
VL: not shown
notes: human IgG1 Fab
For B3, the equilibrium dissociation constant (Kd) was determined as 333 nM in test [2], 12 nM in test [3], 67.2 nM in test [4] and 97.7 nM in test [5].

B4: anti-CD38-B6-MP02-G11 FAB (Fab, V domains shown)
VH: QVQLVQSGAEVKKPGSSVKVSCKASGGHTLPPIINWVRQAPGQGLEWMGRVIPVIDDAYYAQKFQGRVTITADESTSTAYMELSSLRSEDTAVYYCARSRGYYGSFYFDIWGQGTLVTVSS
VL: not shown
notes: human IgG1 Fab
As to B4, the Kd in test [2] amounted to 534 nM; in test [3], 425 nM; in test [4] it was 262 nM; in test [5], 128 nM.

B5: anti-CD38-B6-MP02-B10 FAB (Fab, V domains shown)
VH: QVQLVQSGAEVKKPGSSVKVSCKASGGHNLGKIINWVRQPPGQGLEWMGRVIPVIDDAYYAQKFQGRVTITADESTSTAYMELSSLRSEDTAVYYCARSRGYYGSFYFDIWGQGTLVTVSS
VL: not shown
notes: human IgG1 Fab
With B5, the Kd in test [2] amounted to 528 nM; in test [3], 20.1 nM; in test [4] it was 81.2 nM; in test [5] it was 108 nM.

B6: anti-CD38-B6-MP01-H3b FAB (Fab, V domains shown)
VH: QVQLVQSGAEVKKPGSSVKVSCKASGGPFQSNIVNWIRQAPGQGLEWMGRVIPVIDDAYYAQKFQGRVTITADESTSTAYMELSSLRSEDTAVYYCARSRGYYGSFYFDIWGQGTLVTVSS
VL: not shown
notes: human IgG1 Fab
In the case of B6, the Kd was determined as 330 nM in test [2], 28.9 nM in test [3], 130 nM in test [4] and 171 nM in test [5].

B7: anti-CD38-B6-MP01-H3a FAB (Fab, V domains shown)
VH: QVQLVQSGAEVKKPGSSVKVSCKASGGPFNANIVNWIRQAPGQGLEWMGRVIPVIDDAYYAQKFQGRVTITADESTSTAYMELSSLRSEDTAVYYCARSRGYYGSFYFDIWGQGTLVTVSS
VL: not shown
notes: human IgG1 Fab
Take B7: the Kd was 389 nM in test [2], 28.3 nM in test [3], 120 nM in test [4] and 89.4 nM in test [5].

B8: anti-CD47-UCP01-G2 FAB (Fab, V domains shown)
VH: EVQLVESGGGLIQPGGSLRLSCAASGFTVSNSYMTWVRQAPGKGLEWVSVIYKYGKTSYADSVKGRFTISRDNSKNTLYLQMNSLRAEDTAVYYCARGLTVSPYWGGAFDYWGQGTLVTVSS
VL: not shown
notes: human IgG1 Fab
Consider B8, for which the Kd in the test with human CD47-ECD-Avi-His is 183 nM; in test [1] it was 190 nM.

B9: anti-CD47-UCP01-B3 FAB (Fab, V domains shown)
VH: EVQLVESGGGLIQPGGSLRLSCAASGFTFSNNYMSWVRQAPGKGLEWVSVIYKKGFTNYADSVKGRFTISRDNSKNTLYLQMNSLRAEDTAVYYCARGLSVDKYDGGPFDYWGQGTLVTVSS
VL: not shown
notes: human IgG1 Fab
In the case of B9, the figures for the Kd (with human CD47-ECD-Avi-His; in test [1]) were 316 nM and 340 nM, respectively.

B10: anti-CD47-UCP02-C1 FAB (Fab, V domains shown)
VH: QVQLVQSGAEVKKPGSSVKVSCKASGGFFSAHTISWVRQAPGQGLEWMGRITAVRGVPTYAQKFQGRVTITADESTSTAYMELSSLRSEDTAVYYCARASYGGPRYYWDGLDIWGQGTLVTVSS
VL: not shown
notes: human IgG1 Fab
Regarding B10, the Kd with human CD47-ECD-Avi-His was found to be 193 nM; in test [1], 113 nM.

B11: anti-CD47-UCP01-A2 FAB (Fab, V domains shown)
VH: EVQLLESGGGLVQPGGSLRLSCAASGFTFSRFAMGWVRQAPGKGLEWVSIISPNGHVTAYADSVKGRFTISRDNSKNTLYLQMNSLRAEDTAVYYCARDGLSVSSQGVAFDYWGQGTLVTVSS
VL: not shown
notes: human IgG1 Fab
As to B11, the Kd in the test with human CD47-ECD-Avi-His was determined as 822 nM; in test [1], 1070 nM.

B12: anti-CD47-UCP02-B3 FAB (Fab, V domains shown)
VH: QVQLVQSGAEVKKPGSSVKVSCKASGGRFRLYGINWVRQAPGQGLEWMGGISPIDGYAAYAQKFQGRVTITADESTSTAYMELSSLRSEDTAVYYCARSRRPYSASASYPGYGMDVWGQGTLVTVSS
VL: not shown
notes: human IgG1 Fab
For the molecule B12, the Kd stood at 1010 nM in the test with human CD47-ECD-Avi-His and 1120 nM in test [1].

B13: anti-CD47-UCP01-A3 FAB (Fab, V domains shown)
VH: EVQLVESGGGLIQPGGSLRLSCAASGFTFTNSWMSWVRQAPGKGLEWVSVIYKYGFTEYADSVKGRFTISRDNSKNTLYLQMNSLRAEDTAVYYCARGSSIAAYAYAAPYRGGWMDVWGQGTLVTVSS
VL: not shown
notes: human IgG1 Fab
Take B13: the Kd amounted to 1170 nM with human CD47-ECD-Avi-His and 1260 nM in test [1].

B14: anti-CD47-UCP01-A1 FAB (Fab, V domains shown)
VH: QVQLVQSGAEVKKPGSSVKVSCKASGGFFRLYAFSWVRQAPGQGLEWMGGIIPTDGFVGYAQKFQGRVTITADESTSTAYMELSSLRSEDTAVYYCARSRYYRPYGEYYVVGYGFAYWGQGTLVTVSS
VL: not shown
notes: human IgG1 Fab
Consider B14, for which the results for the Kd (with human CD47-ECD-Avi-His; in test [1]) were 292 nM and 15.9 nM, respectively.

B15: anti-CD47-UCP02-H3 FAB (Fab, V domains shown)
VH: QVQLVQSGAEVKKPGSSVKVSCKASGGFFRLYAFSWVRQAPGQGLEWMGGIIPTDGFVGYAQKFQGRVTITADESTSTAYMELSSLRSEDTAVYYCARSRYYRPYGEYYVVGYGFAYWGQGTLVTVSS
VL: not shown
notes: human IgG1 Fab
For the molecule B15, the Kd was 455 nM with human CD47-ECD-Avi-His and 17.8 nM in test [1].
